KM data for two molecules are collected here from patent US20220380739A1 (Boehringer Ingelheim, published 2022).

Assay [1] addresses 6H-GSG-VDVAD-BIWA4. The assay is described as follows: cell-based or functional assay.
In assay [2] the target is 6H-GSG-VDVAD-BIWA4. Briefly: cell-based or functional assay. The source holds these as a separate data set.

Substitutions are numbered along the chain they refer to. Read-outs that look alike come from different tables or passages of the source.

Chain of 6H-GSG-VDVAD-BIWA4 (scFv, as listed by the source): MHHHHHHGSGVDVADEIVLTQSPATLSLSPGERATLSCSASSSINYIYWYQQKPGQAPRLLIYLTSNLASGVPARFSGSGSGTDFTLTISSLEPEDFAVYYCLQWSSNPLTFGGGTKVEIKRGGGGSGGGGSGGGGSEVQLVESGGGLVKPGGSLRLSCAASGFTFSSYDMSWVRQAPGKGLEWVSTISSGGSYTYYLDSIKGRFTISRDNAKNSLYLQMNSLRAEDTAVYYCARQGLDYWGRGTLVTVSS

B1: T7AC_6H_mS9ProE (enzyme)
chain: MLEDPERNKERKEAELQAQTAEQHHHHHHGKNHAGSPGCEESAAGKEKLPKMRLPTRSDMICGYACLKGTAAMRNTKRGSWYIEALAQVFSERACDMHVADMLVKVNALIKDREGYAPGTEFHRCKVMSEYCSTLCRHLYLFPGHPPTGSGPVCLQVKPCTPEFYQTHFQLAYRLQSRPRGLALVLSNVHFTDEKELEFRSGGDVDHSTLVTLFKLLGYDVHVLCDQTAQEMQEKLQNFAQLPAHRGTDSCIVALLSHGVEGAIYGVDGKLLQLQEVFQLFDNANCPSLQNKPKMFFIQACRGEETERGVDQQD
For the molecule B1, the KM in assay [1] and in assay [2] was 0.00016 in each case.

B2: T7AC_6H_mS9ProD (enzyme)
chain: B1 chain with E307D
For the molecule B2, the KM in assay [1] and in assay [2] was 0.00023 each time.
